The record followed here is publication doi:10.1101/2020.05.19.103432.

Assay [1] has as its target GltPh, fully functional seven-histidine mutant, referred to as wildtype (WT) (UniProt O59010). Briefly: cryo-EM structure.
Assay [2] has as its target GltPh K55C/C321A/A364C mutant, cross-linked with HgCl2 (GltPh^IFS) (UniProt O59010). The assay is described as follows: cryo-EM structure.

“GltPh, fully functional seven-histidine mutant, referred to as wildtype (WT) (from UniProt O59010 1-417) (natural protein)” came in with a stoichiometry N in assay [1] of 3.
In the case of “GltPh K55C/C321A/A364C mutant, cross-linked with HgCl2 (GltPh^IFS) (from UniProt O59010 1-425) (natural protein)”, the stoichiometry N in assay [2] came out at 3.
